Reference: the supplement of paper PMC9732359
± gives the uncertainty stated by the source.

Test: protein stability index of a GFP-peptide fusion (yeast GPS) (PSI 1-4); higher = more stable; sorted into four equal gates, so the index is relative within each strain
How it was run: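 For each peptide, the protein stability index sums the read frequency in every gate after multiplying it by the gate number. Read frequencies came from plasmids that were PCR-amplified from each gate and Illumina-sequenced, with reads assigned to strains by barcodes. The gates were four equal bins of GFP/Cherry fluorescence ratio applied to mid-log yeast in leucine-free medium carrying a pooled library of tiled 17-residue yeast protein peptides fused downstream of GFP on a Cherry-expressing plasmid.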

Sequence | protein stability index (doa10∆) | protein stability index (pdr5∆) | protein stability index (san1∆) | protein stability index (ubr1∆)
NASKVISTPIINAVLVN [RPO31] | 1.63 ± 0.11 | 2.19 ± 0.14 | 1.74 ± 0.2 | 
DVKVIMATNKIETLDPA [RPT2] | 3.17 ± 0.091 | 2.96 ± 0.093 | 2.92 ± 0.07 | 2.9 ± 0.068
VIWELDDSANIVNVNFM [DIS3] | 2.96 ± 0.049 | 2.85 ± 0.057 | 3.21 ± 0.042 | 2.99 ± 0.045
NVPWPQNSYADKVTSQA [RPP1] | 2.04 ± 0.094 | 2.19 ± 0.15 | 1.83 ± 0.1 | 2.25 ± 0.096
VMNKNQETAISVAKLFK [RPT6] | 2.24 ± 0.19 | 1.72 ± 0.19 |  | 
NKKSEQALDISKKGKPT [SRP72] | 3.1 ± 0.1 | 3.02 ± 0.071 | 2.81 ± 0.061 | 3.04 ± 0.073
HHYNPKTKKLNLSAFKI [BRR2] | 2.21 ± 0.062 | 2.4 ± 0.05 | 2.4 ± 0.055 | 2.4 ± 0.042
HRLIATHTNLERDEQKR [SNF2] | 3.38 ± 0.069 | 3.25 ± 0.074 | 3.01 ± 0.11 | 3.32 ± 0.048
LALERMVPKRSTIITKA [YCS4] | 1.28 ± 0.1 | 1.47 ± 0.066 | 1.16 ± 0.11 | 1.08 ± 0.091
QIPLHRAASVGSLKLIE [NAS6] | 2.04 ± 0.078 | 2.16 ± 0.084 | 2.23 ± 0.14 | 1.83 ± 0.1
LVKTKELIKNYITARIM [FAS1] |  | 2.91 ± 0.19 | 3.02 ± 0.27 | 2.64 ± 0.073
FDEKTIEEMLEIISGYA [RPC17] | 1.36 ± 0.082 | 2.69 ± 0.14 | 2.07 ± 0.14 | 1.75 ± 0.09
KTQCPNYDTCGGESAYF [RPC11] | 3.21 ± 0.16 | 2.81 ± 0.26 | 3.24 ± 0.073 | 2.94 ± 0.15
AKPFQVTKEYFQDVYDL [FAS1] | 2.96 ± 0.12 | 2.81 ± 0.074 | 2.4 ± 0.088 | 2.72 ± 0.063
KKYTQNNPLLLIVDVKQ [RPN8] | 1.4 ± 0.068 | 1.31 ± 0.046 | 1.06 ± 0.14 | 1.16 ± 0.048
DMPCDVLAKRMANLSQI [SCL1] | 1.71 ± 0.09 | 1.4 ± 0.064 | 1.6 ± 0.17 | 1.61 ± 0.076
RKKRTRRLKRKRRKVRA [RPL41A] | 3.14 ± 0.16 | 3.21 ± 0.13 | 3.15 ± 0.12 | 3.17 ± 0.086
GSVMSASVEIVFHDPDH [SMC3] | 2.12 ± 0.091 | 2.53 ± 0.071 | 2.4 ± 0.084 | 2.55 ± 0.061
TPVVLATPIPEEVQQAQ [RPS5] | 2.55 ± 0.099 | 2.43 ± 0.16 | 3.1 ± 0.1 | 2.83 ± 0.13
PISEKGLTLSTTNLDID [RPP1] | 2.82 ± 0.052 | 2.92 ± 0.041 | 3.05 ± 0.034 | 2.9 ± 0.049
EKYAAAAPAATSAASGD [RPP0] | 2.47 ± 0.097 | 2.15 ± 0.074 | 1.88 ± 0.13 | 2.78 ± 0.048
NEAPPKTSLADWQKEDG [YMR153W/NUP53] | 2.74 ± 0.13 | 3.14 ± 0.1 | 2.56 ± 0.16 | 2.93 ± 0.15
ENQPFHGIKDIPIGHVH [AAR2] | 2.79 ± 0.078 | 2.98 ± 0.086 | 2.89 ± 0.084 | 2.67 ± 0.092
DGGLEEETDEVSSESSD [SIR3] | 3.3 ± 0.099 | 3.3 ± 0.11 | 3.2 ± 0.089 | 3.24 ± 0.086
PEILRFKVYEPLLLVGL [RPS16A] | 2.01 ± 0.12 | 2.31 ± 0.098 | 2.1 ± 0.18 | 2.65 ± 0.068
ASKTNLRLTDVTNSLSN [GAL11] | 3.15 ± 0.072 | 3.38 ± 0.067 | 2.96 ± 0.051 | 3.28 ± 0.064

Sequence | protein stability index (doa10∆) | protein stability index (pdr5∆) | protein stability index (san1∆) | protein stability index (ubr1∆)
PAPINSLSRDFVMKTRR [SNU114] | 3.15 ± 0.081 | 2.95 ± 0.064 | 2.97 ± 0.049 | 3.15 ± 0.051
YINVNPQEETITFLIEK [ECM29] | 3.23 ± 0.095 | 2.96 ± 0.089 | 2.91 ± 0.064 | 3.17 ± 0.06
SPRNTYQCAMGKQAIGA [RET1] | 1.94 ± 0.14 | 2.57 ± 0.14 | 2.83 ± 0.15 | 
CIIFITFEFINIAFDAH [YML031W/NDC1] | 1.23 ± 0.043 | 1.44 ± 0.044 | 1.38 ± 0.085 | 1.32 ± 0.032
LLEQDTSTEKLYKLNDK [PRE9] | 2.99 ± 0.062 | 3.08 ± 0.07 | 2.91 ± 0.058 | 2.91 ± 0.056
LEEKLYQMQSNYESVFT [YIL149C/MLP2] | 2.24 ± 0.052 | 1.71 ± 0.028 | 2.52 ± 0.068 | 2.57 ± 0.045
TIKDLVGGKSTVQNEIL [FAS2] | 3.03 ± 0.073 | 2.92 ± 0.1 | 2.21 ± 0.1 | 3.24 ± 0.11
ISDVKIQVAAFIYGMSA [PRP8] |  | 2.17 ± 0.17 | 1.84 ± 0.12 | 1.94 ± 0.14
SETDLNDIPLGSGQPDN [SRB8] | 3.09 ± 0.11 | 3.12 ± 0.069 | 3.06 ± 0.07 | 2.87 ± 0.056
DRGIANIRNNIESQNLD [SRB4] | 3.12 ± 0.14 | 3.34 ± 0.12 | 2.98 ± 0.11 | 3.07 ± 0.067
KLPLSVINVSAQRDRRY [RPS17A] | 1.8 ± 0.064 | 1.77 ± 0.058 | 1.43 ± 0.23 | 1.66 ± 0.15
LGSGSLAAMAVLESHWK [PUP1] | 3.24 ± 0.16 | 3.27 ± 0.14 | 2.64 ± 0.2 | 3.69 ± 0.18
DHKFPIRENKVTYSRVS [BRN1] | 2.75 ± 0.13 | 2.9 ± 0.11 | 3.01 ± 0.097 | 2.66 ± 0.087
VTALEVLSLGRPNLPTH [RGR1] | 2.93 ± 0.14 |  | 2.18 ± 0.14 | 2.33 ± 0.079
HAYNITFNNQDKGLLPY [RPO31] | 2.64 ± 0.09 | 3.09 ± 0.2 | 1.76 ± 0.098 | 2.91 ± 0.057
HSNRCIVFSKKEPFPHS [CSN12] | 2.49 ± 0.043 | 2.85 ± 0.047 | 2.8 ± 0.058 | 2.69 ± 0.037
FDFIKDNETPSKKTSPK [YOR098C/NUP1] | 2.25 ± 0.051 | 2.87 ± 0.043 | 2.6 ± 0.063 | 2.96 ± 0.038
EHASLLVRDSKPSKPFN [MED8] | 2.43 ± 0.057 | 2.67 ± 0.046 | 2.56 ± 0.05 | 2.55 ± 0.052
ESAVKYALAAKDRFDID [RPN2] | 3.54 ± 0.27 | 3.09 ± 0.29 | 2.87 ± 0.22 | 3.45 ± 0.1
LKTDGVRAVSITSFGFG [FAS2] | 1.44 ± 0.067 | 2.15 ± 0.099 | 1.5 ± 0.11 | 1.41 ± 0.05
LISDQLLEFFELVFSKG [YML103C/NUP188] | 2.57 ± 0.077 | 2.71 ± 0.11 | 3.1 ± 0.066 | 2.9 ± 0.057
AEFILKNRSTIFWGIRL [BRR2] | 2.73 ± 0.056 | 1.93 ± 0.063 | 1.52 ± 0.089 | 1.77 ± 0.048
SKTVVTLSEPVQGELKP [FAS1] | 2.56 ± 0.05 | 2.73 ± 0.052 | 2.5 ± 0.053 | 2.18 ± 0.033
TLLRLNELLDLTESQTE [RPN5] | 2.39 ± 0.089 | 2.18 ± 0.092 | 2.71 ± 0.11 | 2.74 ± 0.072
ASILLALTQMDQDKVNF [RPB3] | 3.18 ± 0.11 | 3.28 ± 0.094 | 3.24 ± 0.073 | 2.93 ± 0.056
LAAVPAAGPASAGGAAA [RPP2A] | 2.35 ± 0.085 | 1.58 ± 0.063 | 1.4 ± 0.26 | 1.61 ± 0.071
